Assay results as given in US20230137139A1, “BIOSYNTHESIS OF CANNABINOIDS AND C[…]” (priority 2020, published 2023).

What was measured:
[1] = system: CBCVA, THCVA, and CBDVA production; experiment: In vivo TS activity assay, Example 2 protein engineering of A. niger CBCAS, cultures fed divaric acid; format: cell-based, S. cerevisiae; conditions: for Mean CBCVA / Mean CBDVA / Mean THCVA: S. cerevisiae strains expressing A. niger CBCAS mutants; for Mean CBCVA / Mean CBDVA / Mean THCVA / % CBCVA / % CBDVA / % THCVA: fed divaric acid; for % CBCVA / % CBDVA / % THCVA: share of terminal cannabinoid product profile
Protocol: (§1) An assay to detect TS activity was conducted as follows: each thawed glycerol stock of candidate CBCAS transformants was stamped into a well of YEP+4% dextrose media. Samples were incubated at 30° C. in a shaking incubator for 2 days. A portion of each of the resulting cultures was stamped into a well of YEP+4% galactose+1 mM olivetolic acid (FIG. 1 Structure 6a). Samples were incubated at 20° C. and shaken in a shaking incubator for 4 days. Every 24 hours during those 4 days, 2% galactose and 1 mM olivetolic acid were spiked into the cultures. Sodium citrate buffer adjusted to pH 5.5 was added to each well at a final concentration of 100 mM. Samples were incubated at 20° C. and shaken in a shaking incubator for 2 days. A portion of each of the resulting production cultures was stamped into a well of phosphate buffered saline (PBS). Optical measurements were taken on a plate reader, with absorbance measured at 600 nm and fluorescence at 528 nm with 485 nm excitation. Samples were incubated at 30° C. in a shaking incubator for 2 days. 100% methanol was stamped into the production cultures in half-height deepwell plates. Plates were heat sealed and frozen. Samples were then thawed for 30 min and spun down at 4° C. A portion of the supernatant was stamped into half-area 96 well plates. CBCA, THCA, and CBDA production in the samples was quantified via liquid chromatography-mass spectrometry (LC-MS).
(§2) To determine whether engineering of the A. niger CBCAS identified in Example 1 (corresponding to SEQ ID NO: 29 (with signal peptides); SEQ ID NO: 27 (without signal peptides and including an N-terminal methionine (UniProt accession No. A0A254UC34)); or SEQ ID NO: 25 (without signal peptides and without the N-terminal methionine)), could alter CBCAS substrate specificity, product specificity and/or amounts of products produced, point mutations were generated in A. niger CBCAS and the mutant versions of the protein were expressed in S. cerevisiae. A library containing 1047 A. niger CBCAS mutants was generated and screened. As in Example 1, each CBCAS mutant in the library, as well as the enzymes expressed by positive control strains, included an N-terminal MFalpha2 signal peptide (SEQ ID NO: 16) (with a methionine residue added at the N-terminus of the MFalpha2 signal peptide) and a C-terminal HDEL signal peptide (SEQ ID NO: 17).
(§3) Of the original 1047 library members, 55 strains were elevated to a secondary screen to verify CBCA production. The experimental protocol for the secondary screen was identical to the primary screen, except that additional biological replicates were included per strain, and replicate production cultures for each strain were separately fed 1 mM boluses of olivetolic acid or 1 mM boluses of divaric acid. All strains were screened in quadruplicate.

[2] = system: CBCA, THCA, and CBDA production; experiment: In vivo TS activity assay, Example 2 protein engineering of A. niger CBCAS, cultures fed olivetolic acid; format: cell-based, S. cerevisiae; conditions: for average CBCA titer compared with the A. niger positive control / Mean CBCA / Mean CBDA / Mean THCA: secondary screen; for Mean CBCA / Mean CBDA / Mean THCA: olivetolic acid (Table 8); for % CBCA / % CBDA / % THCA: share of terminal cannabinoid product profile
Protocol: as §1, §2
Production of compounds of Formulae (9), (10), and/or (11), including compounds of Formulae (9a), (10a), and/or (11a) by strains expressing the mutated versions of A. niger CBCAS was quantified and compared to the production of the same compounds by a strain expressing wild-type A. niger CBCAS, a strain expressing a C. sativa THCAS, and a strain expressing a C. sativa CBDAS. The strains were screened using the same assay described in Example 1. Production of CBCA, THCA, and/or CBDA in the samples was quantified via LC-MS.
as §3

Molecule	Mean CBCVA ([1]; secondary screen)	Mean CBDVA ([1]; secondary screen)	Mean THCVA ([1]; secondary screen)	% CBCVA [1]	% CBDVA [1]	% THCVA [1]	average CBCA titer compared with the A. niger positive control [2]	Mean CBCA [2]	Mean CBDA [2]	Mean THCA [2]	% CBCA [2]	% CBDA [2]	% THCA [2]	average CBCVA titer compared with the A. niger positive control ([1]; secondary screen)
t865805 (protein, expressed in S. cerevisiae strain) MGNTTSIAGRDCLISALGGNSALAVFPNELLWTADVHEYNLNLPVTPAAITYPESAAQIAGVVKCASDYDYKVQARSGGHSFGNYGLGGADGAVVVDMKHFTQFSMDDETYEAVIGPGTTLNDVDTELYNNGKRAMAHGVCPTIKTGGHFTIGGLGPTARQWGLALDHVEEVEVVLANSSIVRASNTQNQDVFFAVKGAAANFGIVTEFKVRTEPAPGLAVQYSYTFNLGSTAEKAQFVKDWQSFISAKNLTRQFYNNMVIFDGDIILEGLFFGSKEQYDALGLEDHFAPKNPGNILVLTDWLGMVGHALEDTILKLVGNTPTWFYAKSLGFRQDTLIPSAGIDEFFEYIANHTAGTPAWFVTLSLEGGAINDVAEDATAYAHRDVLFWVQLFMVNPVGPISDTTYEFTDGLYDVLARAVPESVGHAYLGCPDPRMEDAQQKYWRTNLPRLQELKEELDPKNTFHHPQGVMPA	3077.84 µg/L	0.00 µg/L	1538.55 µg/L	66.67%	0.00%	33.33%	higher	34567.68 µg/L	8917.97 µg/L	2285.23 µg/L	75.52%	19.48%	4.99%	–
t865729 (protein) MGNTTSIAGRDCLISALGGNSALAVFPNELLWTADVHEYNLNLPVTPAAITYPETAEQIAGVVKCASDYDYKVQARSGGHSFGNYGLGGADGAVVVDMKHFTQFSMDDETYEAVIGPGTTLNDVDIELYNSGKRAMAHGVCPTIKTGGHFTIGGLGPTARQWGLALDHVEEVEVVLANSSIVRASNTQNQDVFFAVKGAAANFGIVTEFKVRTEPAPGLAVQYSYTFNLGSTAEKAQFVKDWQSFISAKNLTRQFYNNMVIFDGDIILEGLFFGSKEQYDALGLEDHFAPKNPGNILVLTDWLGMVGHALEDTILKLVGNTPTWFYAKSLGFRQDTLIPSAGIDEFFEYIANHTAGTPAWFVTLSLEGGAINDVAEDATAYAHRDVLFWVQLFMVNPVGPISDTTYEFTDGLYDVLARAVPESVGHAYLGCPDPRMEDAQQKYWRTNLPRLQELKEELDPKNTFHHPQGVMPA	3685.70 µg/L	0.00 µg/L	1839.38 µg/L	66.71%	0.00%	33.29%	higher	32213.25 µg/L	8392.06 µg/L	1856.57 µg/L	75.86%	19.76%	4.37%	higher
t878470 (protein, expressed in S. cerevisiae strain) MGNTTSIAGRDCLISALGGNSALAVFPNELLWTADVHEYNLNLPVTPAAITYPETAQQIAAVVKCASDYDYKVQARSGGHSFGNYGLGGADGAVVVDMKHFTQFSMDDETYEAVIGPGTTLNDVDIELYNNGKRAMAHGVCPTIKTGGHFTIGGLGPTARQWGLALDHVEEVEVVLANSSIVRASNTQNQDVFFAVKGAAANFGIVTEFKVRTEPAPGLAVQYSYTFNLGSTAEKAQFVKDWQSFISAKNLTRQFYNNMVIFDGDIILEGLFFGSKEQYDALGLEDHFAPKNPGNILVLTDWLGMVGHALEDTILKLVGNTPTWFYAKSLGFRQDTLIPSAGIDEFFEYIANHTAGTPAWFVTLSLEGGAINDVAEDATAYAHRDVLFWVQLFMVNPVGPISDTTYEFTDGLYDVLARAVPESVGHAYLGCPDPRMEDAQQKYWRTNLPRLQELKEELDPKNTFHHPQGVMPA	3226.77 µg/L	0.00 µg/L	1646.54 µg/L	66.21%	0.00%	33.79%	higher	64502.70 µg/L	10538.52 µg/L	2739.24 µg/L	82.93%	13.55%	3.52%	–
t865711 (protein) MGNTTSIAGRDCLISALGGNSALAVFPNELLWTADVHEYNLNLPVTPAAITYPETAAQIAGVVKCASDYDYKVQARSGGHSFGNYGLGGADGAVVVDMKHFTQFSMDDETYEAVIGPGTTLGDVDIELYNNGKRAMAHGVCPTIKTGGHFTIGGLGPTARQWGLALDHVEEVEVVLANSSIVRASNTQNQDVFFAVKGAAANFGIVTEFKVRTEPAPGLAVQYSYTFNLGSTAEKAQFVKDWQSFISAKNLTRQFYNNMVIFDGDIILEGLFFGSKEQYDALGLEDHFAPKNPGNILVLTDWLGMVGHALEDTILKLVGNTPTWFYAKSLGFRQDTLIPSAGIDEFFEYIANHTAGTPAWFVTLSLEGGAINDVAEDATAYAHRDVLFWVQLFMVNPFGPISDTTYEFTDGLYDVLARAVPESVGHAYLGCPDPRMEDAQQKYWRTNLPRLQELKEELDPKNTFHHPQGVMPA	2442.93 µg/L	0.00 µg/L	1315.45 µg/L	65.00%	0.00%	35.00%	higher	33994.02 µg/L	9666.71 µg/L	2096.22 µg/L	74.29%	21.13%	4.58%	–
t865714 (protein) MGNTTSIAGRDCLISALGGNSALAVFPNELLWTADVHEYNLNLPVTPAAITYPETAAQIAGVVKCASDYDYKVQARSGGHSFGNYGLGGADGAVVVDMKHFTQFSMDDETYEAVIGPGTTLNDVDIELYNNGKRAMAHGVCPTIKTGGHFTIGGLGPTARQWGLALDHVEEVEVVLANSSIVRASNTQNQDVFFAVKGAAANFGIVTEFKVRTEPAPGLAVQYSYTFNLGSTAEKAQFVKDWQSFISAKNLTRQFYNNMVIFDGDIILEGLFFGSKEQYDALGLEDHFAPKNPGNILVLTDWLGMVGHALEDTILKLVGNTPTWFYAKSLGFRQDTLIPSAGIDEFFEYIANHTAGTPAWFVTLSLEGGAINDVAEDATAYAHRDVLFWVQLFTVNPVGPISDTTYEFTDGLYDVLARAVPESVGHAYLGCPDPRMEDAQQKYWRTNLPRLQELKEELDPKNTFHHPQGVMPA	1775.08 µg/L	0.00 µg/L	1101.76 µg/L	61.70%	0.00%	38.30%	higher	32311.22 µg/L	6827.61 µg/L	2172.74 µg/L	78.21%	16.53%	5.26%	–
